# Experimental data taken from article PMC1184061.
# Residue numbers refer to the chain shown, from its start.
# B1: Zif_3 (CC) (dsDNA)
# DNA 1: TCGAGGTCGACGGTATCGCGTGGGCCCTCCACTAGTTCTAGAGCGGCCGCCAC
# DNA 2: GTGGCGGCCGCTCTAGAACTAGTGGAGGGCCCACGCGATACCGTCGACCTCGA
# B2: Zif_4 (AG) (dsDNA)
# DNA 1: B1 DNA 1 with C25A, C26G
# DNA 2: B1 DNA 2 with G28C, G29T
# B3: Zif_2 (CA) (dsDNA)
# DNA 1: B1 DNA 1 with C26A
# DNA 2: B1 DNA 2 with G28T
# B4: Zif_6 (AC) (dsDNA)
# DNA 1: B1 DNA 1 with C25A
# DNA 2: B1 DNA 2 with G29T
# B5: Zif_5 (AA) (dsDNA)
# DNA 1: B1 DNA 1 with C25A, C26A
# DNA 2: B1 DNA 2 with G28T, G29T
# B6: Zif_1 (CG) (dsDNA)
# DNA 1: B1 DNA 1 with C26G
# DNA 2: B1 DNA 2 with G28C
# Assays:
# [1] = molecular target: T1, zif268 DBD wild type (RE) (UniProt P08046 331-420); assay: competition EMSA (QuMFRA); 30 mM Tris-HCl pH 8.0, 50 mM NaCl, 0.1 mg/ml BSA, 3 mM DTT, 20 uM ZnSO4, 5 ug/ml poly(dI-dC), 1 h on ice; 10% polyacrylamide gel
# [2] = molecular target: T2, zif268 DBD R18D/E21N (DN) (UniProt P08046 331-420, R349D;E352N); assay: as above
# [3] = molecular target: T3, zif268 DBD R18Q/E21N (QN) (UniProt P08046 331-420, R349Q;E352N); assay: as above
# [4] = molecular target: T4, zif268 DBD R18D (DE) (UniProt P08046 331-420, R349D); assay: as above
# [5] = molecular target: T5, zif268 DBD E21N (RN) (UniProt P08046 331-420, E352N); assay: as above
# [6] = molecular target: T6, zif268 DBD R18Q (QE) (UniProt P08046 331-420, R349Q); assay: as above
# [7] = molecular target: T2, zif268 DBD R18D/E21N (DN); assay: EMSA (Scatchard x QuMFRA); derived; 30 mM Tris-HCl pH 8.0, 50 mM NaCl, 0.1 mg/ml BSA, 3 mM DTT, 20 uM ZnSO4, 5 ug/ml poly(dI-dC), 1 h on ice; 10% polyacrylamide gel
# [8] = molecular target: T3, zif268 DBD R18Q/E21N (QN); assay: as above
# [9] = molecular target: T1, zif268 DBD wild type (RE); assay: EMSA (Scatchard); 30 mM Tris-HCl pH 8.0, 50 mM NaCl, 0.1 mg/ml BSA, 3 mM DTT, 20 uM ZnSO4, 5 ug/ml poly(dI-dC), 1 h on ice; 10% polyacrylamide gel
# [10] = molecular target: T4, zif268 DBD R18D (DE); assay: as above
# [11] = molecular target: T5, zif268 DBD E21N (RN); assay: as above
# [12] = molecular target: T6, zif268 DBD R18Q (QE); assay: as above
# [13] = molecular target: T1, zif268 DBD wild type (RE); assay: EMSA (Scatchard x QuMFRA); derived; 30 mM Tris-HCl pH 8.0, 50 mM NaCl, 0.1 mg/ml BSA, 3 mM DTT, 20 uM ZnSO4, 5 ug/ml poly(dI-dC), 1 h on ice; 10% polyacrylamide gel
# [14] = molecular target: T4, zif268 DBD R18D (DE); assay: as above
# [15] = molecular target: T5, zif268 DBD E21N (RN); assay: as above
# [16] = molecular target: T6, zif268 DBD R18Q (QE); assay: as above
# [17] = molecular target: T2, zif268 DBD R18D/E21N (DN); assay: EMSA (Scatchard); 30 mM Tris-HCl pH 8.0, 50 mM NaCl, 0.1 mg/ml BSA, 3 mM DTT, 20 uM ZnSO4, 5 ug/ml poly(dI-dC), 1 h on ice; 10% polyacrylamide gel
# [18] = molecular target: T3, zif268 DBD R18Q/E21N (QN); assay: as above
binder,measurement,setting,value
B1,binding signal,[1],0.082 Ka relative to CG
same,binding signal,[2],2.61 Ka relative to CG
same,binding signal,[3],0.53 Ka relative to CG
same,binding signal,[4],1.91 Ka relative to CG
same,binding signal,[5],0.41 Ka relative to CG
same,binding signal,[6],2.17 Ka relative to CG
same,Ka,[7],3.1 10^6 M-1
same,Ka,[8],3.9 10^6 M-1
same,Ka,[9],33 10^6 M-1
same,Ka,[10],4.7 10^6 M-1
same,Ka,[11],33 10^6 M-1
same,Ka,[12],6.4 10^6 M-1
B2,binding signal,[1],0.15 Ka relative to CG
same,binding signal,[2],14.5 Ka relative to CG
same,binding signal,[3],4.45 Ka relative to CG
same,binding signal,[4],1.48 Ka relative to CG
same,binding signal,[5],1.29 Ka relative to CG
same,binding signal,[6],1.3 Ka relative to CG
same,Ka,[13],63 10^6 M-1
same,Ka,[14],3.6 10^6 M-1
same,Ka,[15],105 10^6 M-1
same,Ka,[16],3.9 10^6 M-1
same,Ka,[17],17 10^6 M-1
same,Ka,[18],33 10^6 M-1
B3,binding signal,[1],0.27 Ka relative to CG
same,binding signal,[2],1.21 Ka relative to CG
same,binding signal,[3],0.49 Ka relative to CG
same,binding signal,[4],1.16 Ka relative to CG
same,binding signal,[5],0.36 Ka relative to CG
same,binding signal,[6],1.5 Ka relative to CG
same,Ka,[13],109 10^6 M-1
same,Ka,[7],1.4 10^6 M-1
same,Ka,[8],3.5 10^6 M-1
same,Ka,[14],2.8 10^6 M-1
same,Ka,[15],30 10^6 M-1
same,Ka,[16],4.5 10^6 M-1
B4,binding signal,[1],0.041 Ka relative to CG
same,binding signal,[2],11.8 Ka relative to CG
same,binding signal,[3],2.78 Ka relative to CG
same,binding signal,[4],3.08 Ka relative to CG
same,binding signal,[5],0.94 Ka relative to CG
same,binding signal,[6],1.93 Ka relative to CG
same,Ka,[13],16 10^6 M-1
same,Ka,[7],14 10^6 M-1
same,Ka,[8],21 10^6 M-1
same,Ka,[14],5.5 10^6 M-1
same,Ka,[15],77 10^6 M-1
same,Ka,[16],5.7 10^6 M-1
B5,binding signal,[1],0.064 Ka relative to CG
same,binding signal,[2],4.02 Ka relative to CG
same,binding signal,[3],2.47 Ka relative to CG
same,binding signal,[4],2.25 Ka relative to CG
same,binding signal,[5],0.68 Ka relative to CG
same,binding signal,[6],1.36 Ka relative to CG
same,Ka,[13],26 10^6 M-1
same,Ka,[7],4.8 10^6 M-1
same,Ka,[8],18 10^6 M-1
same,Ka,[14],3.7 10^6 M-1
same,Ka,[15],56 10^6 M-1
same,Ka,[16],4 10^6 M-1
B6,Ka,[13],406 10^6 M-1
same,Ka,[7],1.2 10^6 M-1
same,Ka,[8],7.4 10^6 M-1
same,Ka,[14],2.5 10^6 M-1
same,Ka,[15],81 10^6 M-1
same,Ka,[16],3 10^6 M-1
